# Experimental data taken from article PMC12386978 (2025).
# B1: NLuc-mCRY1 (wild-type) [mouse (printed as mCRY1)] / CLuc-BMAL1 [not stated] (parent complex)
# chain 1: MGVNAVHWFRKGLRLHDNPALKECIQGADTIRCVYILDPWFAGSSNVGINRWRFLLQCLEDLDANLRKLNSRLFVIRGQPADVFPRLFKEWNITKLSIEYDSEPFGKERDAAIKKLATEAGVEVIVRISHTLYDLDKIIELNGGQPPLTYKRFQTLVSKMEPLEMPADTITSDVIGKCMTPLSDDHDEKYGVPSLEELGFDTDGLSSAVWPGGETEALTRLERHLERKAWVANFERPRMNANSLLASPTGLSPYLRFGCLSCRLFYFKLTDLYKKVKKNSSPPLSLYGQLLWREFFYTAATNNPRFDKMEGNPICVQIPWDKNPEALAKWAEGRTGFPWIDAIMTQLRQEGWIHHLARHAVACFLTRGDLWISWEEGMKVFEELLLDADWSINAGSWMWLSCSSFFQQFFHCYCPVGFGRRTDPNGDYIRRYLPVLRGFPAKYIYDPWNAPEGIQKVAKCLIGVNYPKPMVNHAEASRLNIERMKQIYQQLSRYRGLGLLASVPSNSNGNGGLMGYAPGENVPSCSSSGNGGLMGYAPGENVPSCSGGNCSQGSGILHYAHGDSQQTHSLKQGRSSAGTGLSSGKRPSQEEDAQSVGPKVQRQSSN
# chain 2: not shown
# Variants of: B1
# Assay: split-luciferase complementation assay; HEK293T cells, n = 3; read off a plot
row,response,Variant
1,~3900,chain 1 K151R
2,~3200,chain 1 K151Q
